According to US20240034757A1 (OXFORD UNIVERSITY INNOVATION, published 2024):
Changes are numbered by the printed parent chain.

T1: CCL25_HUMAN (human, UniProt O15444 24-150)
T1 sequence: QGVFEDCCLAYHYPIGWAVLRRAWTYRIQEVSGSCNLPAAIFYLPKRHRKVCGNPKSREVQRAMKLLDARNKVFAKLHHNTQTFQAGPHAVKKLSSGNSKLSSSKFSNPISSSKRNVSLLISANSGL

T2: CXCL14_HUMAN (human, UniProt O95715 35-111)
T2 sequence: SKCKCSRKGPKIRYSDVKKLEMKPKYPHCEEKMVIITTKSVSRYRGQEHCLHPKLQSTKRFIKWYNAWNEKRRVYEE

T3: CXCL11_HUMAN (human, UniProt O14625 22-94)
T3 sequence: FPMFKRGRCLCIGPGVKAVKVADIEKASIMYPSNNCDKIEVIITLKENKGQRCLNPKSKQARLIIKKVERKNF

T4: CXCL10_HUMAN (human, UniProt P02778 22-98)
T4 sequence: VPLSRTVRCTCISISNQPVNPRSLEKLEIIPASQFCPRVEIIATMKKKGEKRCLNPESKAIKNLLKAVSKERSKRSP

T5: CXCL7_HUMAN (human, UniProt P02775 59-128)
T5 sequence: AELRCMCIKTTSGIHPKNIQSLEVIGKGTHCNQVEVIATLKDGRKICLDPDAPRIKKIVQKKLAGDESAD

T6: CXCL5_HUMAN (human, UniProt P42830 41-114)
T6 sequence: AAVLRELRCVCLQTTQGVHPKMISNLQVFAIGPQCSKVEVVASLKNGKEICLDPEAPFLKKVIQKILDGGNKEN

T7: CXCL2_HUMAN (human, UniProt P19875 35-107)
T7 sequence: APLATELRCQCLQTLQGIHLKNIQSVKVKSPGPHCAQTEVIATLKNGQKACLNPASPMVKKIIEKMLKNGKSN

T8: CXCL4_HUMAN (human, UniProt P02776 32-101)
T8 sequence: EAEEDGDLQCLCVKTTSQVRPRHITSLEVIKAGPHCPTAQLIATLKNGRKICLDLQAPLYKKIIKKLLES

T9: CXCL8_HUMAN (human, UniProt P10145 28-99)
T9 sequence: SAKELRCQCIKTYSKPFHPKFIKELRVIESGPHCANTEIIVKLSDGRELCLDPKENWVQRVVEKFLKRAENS

T10: CXCL9_HUMAN (human, UniProt Q07325 23-125)
T10 sequence: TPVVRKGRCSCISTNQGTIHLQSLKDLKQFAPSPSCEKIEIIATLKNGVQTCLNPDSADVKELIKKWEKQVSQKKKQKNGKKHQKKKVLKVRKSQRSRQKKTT

T11: CXCL6_HUMAN (human, UniProt P80162 38-114)
T11 sequence: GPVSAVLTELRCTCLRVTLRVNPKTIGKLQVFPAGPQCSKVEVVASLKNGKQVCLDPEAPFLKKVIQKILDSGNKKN

T12: CXCL3_HUMAN (human, UniProt P19876 35-107)
T12 sequence: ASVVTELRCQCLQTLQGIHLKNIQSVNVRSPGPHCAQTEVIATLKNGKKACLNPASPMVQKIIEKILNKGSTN

T13: CXCL1_HUMAN (human, UniProt P09341 35-107)
T13 sequence: T7 sequence with P2S, L3V, L20P, K27N, Q48R, M58I, K68N, N69S, G70D

T14: CCL5_HUMAN (human, UniProt P13501 24-91)
T14 sequence: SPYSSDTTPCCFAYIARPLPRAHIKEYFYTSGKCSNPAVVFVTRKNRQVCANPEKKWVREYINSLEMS

T15: CCL8_HUMAN (human, UniProt P80075 24-99)
T15 sequence (looked up): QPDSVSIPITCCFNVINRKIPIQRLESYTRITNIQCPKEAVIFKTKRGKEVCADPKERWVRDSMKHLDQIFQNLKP

T16: P1096_IXORI (Ixodes ricinus, UniProt A0A0K8RKE4 24-114)
T16 sequence: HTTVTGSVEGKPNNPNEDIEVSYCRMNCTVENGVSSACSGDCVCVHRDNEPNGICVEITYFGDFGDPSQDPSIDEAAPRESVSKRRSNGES

T17: P1134_IXORI (Ixodes ricinus, UniProt A0A0K8RAI0 32-135)
T17 sequence: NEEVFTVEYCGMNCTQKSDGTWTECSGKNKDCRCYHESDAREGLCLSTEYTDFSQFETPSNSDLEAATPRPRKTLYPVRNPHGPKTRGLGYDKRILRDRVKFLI

T18: P1095_IXORI (Ixodes ricinus, UniProt A0A0K8RCE3 24-112)
T18 sequence: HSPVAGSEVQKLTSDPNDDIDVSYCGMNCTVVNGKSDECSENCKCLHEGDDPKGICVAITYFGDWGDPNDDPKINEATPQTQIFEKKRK

B1: P1146_IXORI (other)
chain: GPDTKGDEESDENELFTVEYCGTNCTQLENGSWTPCSGNNGNCRCFHESDKTVGLCLSTEYTDFSEYPDPNSSEIIAAAPLPRERLIQ
B2: P1086_IXORI (other)
chain: GSKGQRASQVSETSITAEFCDTSCTQGTDKTWSGCSGDCFCVHVGNDTEGRCMRWDGDYPSAEEEE
B3: EVA3_RHISA (other)
single chain: LVSTIESRTSGDGADNFDVVSCNKNCTSGQNECPEGCFCGLLGQNKKGHCYKIIGNLSGEPPVVRR
notes: also called Evasin-3; evasin 3
B4: P1156_IXORI (other)
chain: ADDDNELFTVQYCGMNCTKDEGGTWTGCTGKKEGCKCYHESGKNYGLCLSTEYTDFSQYGNPSDSEIEAAKPKRSDTLSH
B5: P467_RHIPU (other)
chain: AEKSLDSDSSGEDYELWTQGCPFLVAENRTGFGTTVSCQHNCNGAIEKVPEGEPCYTIGEDGLGRMKLNLPYNCSLGECSGGVCVPNGRSDVCFKRTWEENNKAMA
B6: CXCL13_HUMAN (ligand)
chain: VLEVYYTSLRCRCVQESSVFIPRRFIDRIQILPRGNGCPRKEIIVWKKNKSIVCVDPQAEWIQRMMEVLRKRSSSTLPVPVFKRKIP

Legend:
[1] = target: T1, CCL25_HUMAN; experiment: yeast surface display FACS
[2] = target: T2, CXCL14_HUMAN; experiment: BLI
[3] = target: T3, CXCL11_HUMAN; experiment: BLI
[4] = target: CXCL12_HUMAN (human, UniProt P48061 22-89); experiment: BLI
Chain of CXCL12_HUMAN (P48061 22-89 limits assumed): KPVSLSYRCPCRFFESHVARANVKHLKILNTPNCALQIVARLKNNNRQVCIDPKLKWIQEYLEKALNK

[5] = target: T4, CXCL10_HUMAN; experiment: yeast surface display FACS re-test; note: test concentration or dose not given here
[6] = target: T5, CXCL7_HUMAN; experiment: BLI [Cont.]
[7] = target: T6, CXCL5_HUMAN; experiment: BLI [Cont.]
[8] = target: T7, CXCL2_HUMAN; experiment: BLI [Cont.]
[9] = target: T8, CXCL4_HUMAN; experiment: BLI [Cont.]
[10] = target: T9, CXCL8_HUMAN; experiment: BLI [Cont.]
[11] = target: T4, CXCL10_HUMAN; experiment: BLI
[12] = target: T10, CXCL9_HUMAN; experiment: BLI
[13] = target: B6; experiment: BLI
[14] = target: T11, CXCL6_HUMAN; experiment: BLI [Cont.]
[15] = target: T6, CXCL5_HUMAN; experiment: BLI
[16] = target: T7, CXCL2_HUMAN; experiment: BLI
[17] = target: T12, CXCL3_HUMAN; experiment: BLI
[18] = target: T13, CXCL1_HUMAN; experiment: BLI
[19] = target: T11, CXCL6_HUMAN; experiment: BLI
[20] = target: T9, CXCL8_HUMAN; experiment: BLI
[21] = target: CCL2_HUMAN (human, UniProt P13500 24-99); experiment: cell-based or functional assay
Chain of CCL2_HUMAN (P13500 24-99 limits assumed): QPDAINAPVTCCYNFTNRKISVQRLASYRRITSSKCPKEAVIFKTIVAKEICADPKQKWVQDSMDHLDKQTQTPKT

[22] = target: T14, CCL5_HUMAN; experiment: cell-based or functional assay
[23] = target: T15, CCL8_HUMAN; experiment: cell-based or functional assay
[24] = target: CCL7_HUMAN (human, UniProt P80098 24-99); experiment: cell-based or functional assay
Chain of CCL7_HUMAN (P80098 24-99 limits assumed): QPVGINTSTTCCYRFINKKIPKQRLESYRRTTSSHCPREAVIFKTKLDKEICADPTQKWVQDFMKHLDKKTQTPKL

[25] = target: T16, P1096_IXORI; experiment: BLI
[26] = target: T17, P1134_IXORI; experiment: BLI
[27] = target: T18, P1095_IXORI; experiment: BLI
[28] = target: P1080_IXORI (Ixodes ricinus, UniProt A0A090XBL6 20-118); experiment: BLI
Chain of P1080_IXORI (A0A090XBL6 20-118): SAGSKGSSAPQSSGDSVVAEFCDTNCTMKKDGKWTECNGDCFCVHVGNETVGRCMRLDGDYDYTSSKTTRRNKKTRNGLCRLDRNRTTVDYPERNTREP

Binder: B1
- binding result [1]: binds

Binder: B2
- binding result [2]: no binding (tested: 300 nM)
- binding result [3]: no binding (tested: 300 nM)
- Kd [4]: 142 nM
- % cells over threshold fluorescence [5]: 63%
- binding result [6]: no binding (tested: 300 nM)
- Kd [7]: 26 nM
- Kd [8]: 34 nM
- binding result [9]: no binding (tested: 300 nM)
- binding result [10]: no binding (tested: 300 nM)

Binder: B3
- binding result [2]: no binding (tested: 300 nM)
- binding result [3]: no binding (tested: 300 nM)
- binding result [4]: no binding (tested: 300 nM)
- binding result [11]: no binding (tested: 300 nM)
- binding result [12]: no binding (tested: 300 nM)
- binding result [13]: no binding (tested: 300 nM)
- binding result [6]: no binding (tested: 300 nM)
- Kd [7]: 24.9 nM
- Kd [8]: 7.49 nM
- binding result [9]: no binding (tested: 300 nM)
- Kd [14]: 1.03 nM

Binder: B4
- binding result [4]: no binding (tested: 300 nM)
- binding result [12]: no binding (tested: 300 nM)
- binding result [13]: no binding (tested: 300 nM)
- RT [15]: 5.33 min
- RT [16]: 4.2 min
- RT [17]: 5.76 min
- RT [18]: 35.7 min
- RT [19]: 3.23 min
- RT [20]: 46.7 min

Binder: B5
- IC50, THP1 cell migration [21]: 3.26 nM
- IC50, THP1 cell migration [22]: 8.74 nM
- IC50, THP1 cell migration [23]: 1.92 nM
- IC50, THP1 cell migration [24]: 11.1 nM

Binder: B6
- binding result [25]: no binding (tested: 300 nM)
- binding result [26]: no binding (tested: 300 nM)
- binding result [27]: no binding (tested: 300 nM)
- Kd [28]: 1110 nM
